This note sets out measurements from the nanobody polyreactivity screen of Harvey et al. (2022).

This data set can be described thus: yeast display, Sf9 membrane polyspecificity reagent, FACS + sequencing; frameworks hold sequencing errors. In a few lines:
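Galactose induction of a Saccharomyces cerevisiae BJ5465 synthetic nanobody display library ran 36–48 hours. The cells were then stained for 1 hour at 4 °C with 10% biotinylated, detergent-solubilized Sf9 membrane reagent, pulled down on streptavidin microbeads and FACS-sorted into low and high (top ~1%) gates on expression and reagent-binding fluorescence. Labels for polyreactivity follow the gate of origin.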
Turning to “QVQLVESGGGLVQAGGSLRLSCAASGLTFYYYAMGWYRQAPGKERELVAAISYSGSRTYYADSVKGRFTISRDNAKNTVYLQMNSLKPEDTAVYYCAARLSDGGGYWGQGTQVTVSS”, the “polyreactivity (PSR sort gate)” value is listed as “high polyreactivity”. Under “QVQLVESGGGLVQAGGSLRLSCAASGRTIWVYTMGWYRQAPGKERELVATINYRGGSTYYADSVKGRFTISRDNAKNTVYLQMNSLKPEDTAVYYCAADYSPPYPRYPYDYWGQGTQVTVSS” stands “high polyreactivity”; under “QVQLVESGGGLVQAGGSLRLSCAASGFTFAANAMGWYRQAPGKERELVAAISSDSTYADSVKGRFTISRDNAKNTVYLQMNSLKPEDTAVYYCAKDRYIVNSPGLDYWGQGTQVTVSS”, “low polyreactivity”; under “QVQLVESGGRLVQAGGSLRLSCAASGRIFKSYAMGWDRQAPGKERELVAAISRSGGRTYYADSVKGRFTISRDTAKNTVYLQMICLKPEDTAVYFCAGTTIVAPYWGQGTQVTVST”, “low polyreactivity”. Under “QVQLVESGGGLVQAGGSLRLSCAASGSIFGYNAMGWYRQAPGKEREFVAAISWSGGRTYYADSVKGRFTISRDNAKYTVYLQMNSLKPEDTAVYYCAAPSRPAPRFDYWGQGTQVTVSS” stands “low polyreactivity”; under “QVQLVESGGGLVQAGGSLRLSCAASGSIFISYAMGWYRQAPGKERELVAAISSGGSTNYADSVKGRFTISRDNAKNTVYLQMNSLKPEATAVYYCAADGWLWSFTGDGWWFDYWGQGTQVTVSS”, “low polyreactivity”; under “QVQLVESGGGLVQAGCSLRCSCPDSGGIFTRYVMGWYRPAPGKEREMVAAISSRGGSTYYADSVKGRFTISRDNAKNTVYLQMNSLKPEDTAVYYSAAEQGRTSYRYYYWGQGTQVTVSS”, “high polyreactivity”. For the sequence “QVQLVESGGGLVQAGGSLRLSCAASGFTFYTYVKGWYRQAPGKERELVAAITSGVSTNYADSVKGRFTISRDNAKNTVYLQMNSVKPEDTAVYYFNKTFLFLEYDSWGQGTQVTVSS”, the “polyreactivity (PSR sort gate)” value is recorded as “low polyreactivity”. As for “QVQLGESRGGLVQAVGSLSLSCAAYGFTYDKNAMGWYIQAPGNESALDAAINIRSTYYAESVKGRFTISRDNAKNTVYLQMNSMKPEDTAVYYCANEVPSGYWFNYYYWGQGTQVTVSS”, the entry is “low polyreactivity”; as for “QVQLVESGGGLVQAGGSLRLSCAASGFTFSSNAMGWYRQAPGKERELVADINWSGGRTYYADSVKGRFTISRDNAKYTVYLQMNSLKPEDTAVYYCAAVLSWRQYYREYDYWGQGTQVTVSS”, “high polyreactivity”; as for “QVQLVESGGGLVQAGGSLRLSCAASGFTFSAYAMGWYRPAPGKERELVAAISWSGSRTYYADSVKGRFTISRDNAKNTVYLQMNSLKQEDTEVYYCAKEPYDTFGFYEYDYWGQGTQVTVSS”, “low polyreactivity”. Under “QVQLVESGGGLVQAGGSLRLSCAASGSIFNYNTMGWYRQAPGKERELVADISWSGGSTYYADSVKGRFTISRDNAKNTVYLQMNSLKPEDTAVYYCAADFGLFPYVGTGYYFWGQGTQVTVSS” stands “low polyreactivity”; under “QVQLVESGGGLVQAGGSLRLSCAASGRIFIAYMGWYRQAPGKERELVAAIDSGASTYYADSVKGRFTISRDNAKNTVYLQMNSLKPEDTAVYYCAADVVYDYGGMDYWGQGTQVTVSS”, “low polyreactivity”; under “QVQLVESGGGLVQAGGSLRLSCAASGRTFYPYAMGWYRQAPGKERELVASINWSGASTYYADSVKGRFTISRDNAKNTVYLQMNSLKPEDTAVYYCAAYITYLSSRFWYGYWGQGTQVTVSS”, “high polyreactivity”. As for “QVQLVESGGGLVQAGGSLRLSCAASGSTFYTYAMGWYRQAPGKERELVAAIRGRGGRTYYADSVKGRFTISRDNAKNTVYLQMNSLKPEDTSVYYCNADGYAYYRATTRFDYWGQGTQVTVSS”, the entry is “high polyreactivity”; as for “QVQLVESGGGLVEAGGSLRLSCAASVRTFRYYDMGWFRQAPGKQWELVAAITARGGSTYYADSVKGRFTISRDNEKNTDYLQMNSQKPEDTAVYYCNAYPLQIFYLGNRQYNYWRQGTQVTVSS”, “high polyreactivity”; as for “QVQLVESGGGLVQAGGSLRLSCAASGFTFYLYTIGWYRQAPWKERELVATITSDGGTNYADSVKVRFTISRDNAKNTLYLQMNSLKPEDTAVYYCNAASRRGSRKQAKYDYWGQGTQVTVSS”, “low polyreactivity”.

On to “QVQLVESGGGLVQAGGSLRLSCAASGIIFRFYSMGWYRKEPGKERELVAAITSSGGSTYYADSEKGRFTISRDNAKNTVYLQMNSLKPEDSAVYYCATSTGPYRGRFYYWGQGTQVTGSS”, for which the “polyreactivity (PSR sort gate)” value is reported as “high polyreactivity”. Under “QVQLVESGGGLVQAGGSLRLSCAASGRIFRSYAMGWSIQAPGKERELVAAITSGGSTNYADSVKGRFTISRDNAKNTVYLQMNSLKPEDTAVYYCAARWPWYGKLRYYYWGQGTQVTVSS” stands “high polyreactivity”; under “QVQLVESGGGLVQAGGSLRLSCGASGRTFSYYPMGWYRQAPGKERELVAAITSSGGRTYYADSVKGRFTISRDNAKNTVYLQMNSLKPEDTAVYYCAKELVKRYYWGQGTQVTVSS”, “high polyreactivity”; under “QVQLVESGGGLVQAGGSLRLSCAASGSIFGGYTMGWSRQAPGKERELVAGITISGGSTYYADSVKGRFTISRDNAKNTVYLQMNSLKPEDTAVYYCAAVSFVVSSWGYGYWGQGTQVTVSS”, “low polyreactivity”. Turning to “QFQLLESGGGLVQAGGSLRLSCAASGFISDVYAMGWYRQAPGKERELDAVITWRGSTYYADSVKGSFTISRDNAKNTVYLQMNSLKPEDTALYYCAAESQGDWAFDYWGQGTQVTVSS”, the “polyreactivity (PSR sort gate)” value is “low polyreactivity”. “QVQLVESGGGLVQAGGSLRLSCADSGRIFDLNAMGWYRQAPGKERELVAAITWSGDSTYYADSVKGRFTISRDNAKNTVYLQMNSLKPEDTAVYYCAAASRTSYSWVDYEFDYWGQGTQVTVSS”: the “polyreactivity (PSR sort gate)” value is reported as “low polyreactivity”. As for “QVQLVESGGGLVQAGGSLRLSCAASGSTLQVYARGWYRQAPGKERELVAASSKSGGRTYYADSVKGRFTISRDNAKNTVYLQMNSLKPEDTAVYYCAADVGTAQSTYGYWGQGTQVTVSS”, the entry is “high polyreactivity”. With “QVQLVESGGGLVQAGGSLRLSCAASGFTFLAYSMGWYRQAPGKERELVAAIRWSGRRTYYADSVKGRFTISRDNAKNTVYLQMNSLKPEDTAVYYCAADTRRVREYNYWGQGTQVTVSS”, the “polyreactivity (PSR sort gate)” value is given as “low polyreactivity”. As for “QVQLVESGGGLVQAGGSLRLSCAASGRTFRRYVMGWYRQAPGKERELVAAIRWTGGSTYYADSVKGRFTISRDNAKNTVYLQMNSLKPEDTAVYYCAASSYIGYGYLGQGTQVTVSS”, the entry is “high polyreactivity”.

As to “QVQLVESGGGLVQAGGSLRLSCAASGFIFQRYAMGWYRQAPGKESELVAAISSSGGSTYYADSVKGRFTISRDNAKNTVYLQMNSLKPEDTAVNYCAARVPPRTLAYYYWGQGTQVTVSS”, the “polyreactivity (PSR sort gate)” value was “high polyreactivity”. Consider “QVQLQQSGGGLVQAGGSLRLSCAASGSIFDGFNMGWYRQAPGKAREFVAAIRYGASTYYADSVKGRFTVSRDNAKNSVYLQMNSLNPEDTAVYYCAKAYSDGYFPTFDYDYWGQGTQVTVSS”, for which the “polyreactivity (PSR sort gate)” value is given as “low polyreactivity”. Regarding “QVQLVESGGGLVQAGGSLRLSCAASGFTFISNAMGWYRQAPGKERELVAAISSAGGRTYYADSVKGRFTISRATAKITVYLQMNTLKPEDTEVYYSNADRSLLYSRKIEYDSWGQGTQVTVSS”, the “polyreactivity (PSR sort gate)” value is listed as “low polyreactivity”. Regarding “QVQLVESRGGLVQAGGSLRLSCSASGLTIWRYAMGWYRHEPGKEWEFVATISQNGGRTYYADSVKGRFTISRDNAKNTVYLQMNSLKPEDTAVYYCAADDWRWGYDYWGQGTQVTVSS”, the “polyreactivity (PSR sort gate)” value is “high polyreactivity”.
